Laboratory results: article PMC3614804

Columns and labels:
FcεRIα (Homo sapiens) = FcεRIα (Homo sapiens) (UniProt P12319); test: given as Ka; settings: cited from earlier work
[1] = target: extracellular part of FcɛRIα with the transmembrane domain of Her2 at its C-terminus, displayed on the stable CHO cell line FI5F10 (UniProt P12319); test: flow cytometry on cells; 7.5 nM IgE alone (positive control), or preincubated with 750 nM QME5 or with equimolar Omalizumab, added to FI5F10 cells; after washing 5 μg/mL FITC_GAH IgE detects membrane-binding IgE

Substance | Kd (FcεRIα (Homo sapiens)) | percentage of positive cells (7.5 nM IgE, positive control) [1]
IgE Cε3 Cε3 (from UniProt P01854) | 200 nM | 
human IgE (ligand) |  | 69.1%
